B1: Inhibitor of nuclear factor kappa-B kinase subunit beta (Homo sapiens), O14920 (parent)
chain: MSWSPSLTTQTCGAWEMKERLGTGGFGNVIRWHNQETGEQIAIKQCRQELSPRNRERWCLEIQIMRRLTHPNVVAARDVPEGMQNLAPNDLPLLAMEYCQGGDLRKYLNQFENCCGLREGAILTLLSDIASALRYLHENRIIHRDLKPENIVLQQGEQRLIHKIIDLGYAKELDQGSLCTSFVGTLQYLAPELLEQQKYTVTVDYWSFGTLAFECITGFRPFLPNWQPVQWHSKVRQKSEVDIVVSEDLNGTVKFSSSLPYPNNLNSVLAERLEKWLQLMLMWHPRQRGTDPTYGPNGCFKALDDILNLKLVHILNMVTGTIHTYPVTEDESLQSLKARIQQDTGIPEEDQELLQEAGLALIPDKPATQCISDGKLNEGHTLDMDLVFLFDNSKITYETQISPRPQPESVSCILQEPKRNLAFFQLRKVWGQVWHSIQTLKEDCNRLQQGQRAAMMNLLRNNSCLSKMKNSMASMSQQLKAKLDFFKTSIQIDLEKYSEQTEFGITSDKLLLAWREMEQAVELCGRENEVKLLVERMMALQTDIVDLQRSPMGRKQGGTLDDLEEQARELYRRLREKPRDQRTEGDSQEMVRLLLQAIQSFEKKVRVIYTQLSKTVVCKQKALELLPKVEEVVSLMNEDEKTVVRLQEKRQKELWNLLKIACSKVRGPVSGSPDSMNASRLSQPGQLMSQPSTASNSLPEPAKKSEELVAEAHNLCTLLENAIQDTVREQDQSFTALDWSWLQTEEEEHSCLEQAS

Variants of: B1
Details: with keap1_human KEAP1, Q14145
Chain of keap1_human KEAP1, Q14145 (Q14145 whole entry): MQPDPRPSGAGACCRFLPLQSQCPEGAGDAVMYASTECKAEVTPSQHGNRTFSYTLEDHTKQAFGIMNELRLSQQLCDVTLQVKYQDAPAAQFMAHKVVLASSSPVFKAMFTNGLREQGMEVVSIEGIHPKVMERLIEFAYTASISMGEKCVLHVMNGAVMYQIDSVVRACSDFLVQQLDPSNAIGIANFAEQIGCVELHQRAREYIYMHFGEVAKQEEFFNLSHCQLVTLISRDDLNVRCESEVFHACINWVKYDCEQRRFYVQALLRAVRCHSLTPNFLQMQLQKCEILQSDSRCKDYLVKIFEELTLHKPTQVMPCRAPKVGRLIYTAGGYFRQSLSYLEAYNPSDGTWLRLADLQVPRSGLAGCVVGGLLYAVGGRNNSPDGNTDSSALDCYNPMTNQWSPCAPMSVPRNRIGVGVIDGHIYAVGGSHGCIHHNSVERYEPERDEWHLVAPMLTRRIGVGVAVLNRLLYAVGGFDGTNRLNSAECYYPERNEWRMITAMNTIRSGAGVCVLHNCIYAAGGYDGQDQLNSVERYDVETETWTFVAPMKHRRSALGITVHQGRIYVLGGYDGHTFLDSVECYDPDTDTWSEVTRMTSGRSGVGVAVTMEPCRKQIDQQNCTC

| effect of a mutation on the interaction | Variant |
| --- | --- |
| decreasing interaction | E39G |
